The values below come from paper PMC4051777, “Characterization of an Alkali- and Halide-Resistant Laccase Expressed in E. coli: CotA from Bacillus clausii” (PLoS ONE, 2014).

Substrate in data set [1]: COc1cccc(OC)c1O
In words: purified protein. Conditions: pH 7 (implied by context), O2 as co-substrate, DMP 0-12.5 mM, substrate inhibition at high DMP. The data set is classed as biochemical, Shouchella clausii.

Substrate in data set [2]: COc1cccc(OC)c1O
In words: purified protein. The class given is biochemical, Bacillus subtilis. To be noted: pH 7, O2 as co-substrate, DMP 0-12.5 mM, substrate inhibition at high DMP.

B1: cotA from B. clausii (Shouchella clausii KSM-K16) (protein)
chain: MELEKFVDPMPIMKTAIPKKTSKDGDYYEIEMKEFSQKLHRDLNPTRLWGYDGQFPGPTIEVMRGKPARIKWMNNLPDTHFLPIDRSIHHVAHEPEVRTVVHLHGSETTPASDGYPEAWFTKDFAEVGSFFEQETYEYPNDQRAATLWYHDHAMGITRLNVYAGLSGLYIIRDPREEQLNLPKGEFDIPLLIQDRSFNDDGSLFYPAQPANPAPNLPNPSVLPFFVGDTILVNGKVWPYLQVEPRKYRFRILNGSNSRSYQLALDSEAPFYQIASDGGLLRRTVSLQAFDIRPAERIEAIIDFSKFEGQTITLKNNASTDATADVMQFQVVLPLSGEDTSIIPQNLSYIPSLQQNDVKRIRNLKISGTTDEYGRPLLLLNNKLWSDPVEEKPCLGTTEIWSFVNVTNVPHPMHIHLVQFQLLDHRAFNVELYNENGQIELVGPTIPPKINERGWKDTITAPAGQITRVIARFAPFSGYYVWHCHILEHEDYDMMRPFVVIDPKTEKERR
notes: full length, codon-optimized gene in pETM13 (p133), E. coli BL21(DE3)
In general, Km refers to the concentration of substrate that gives half-maximal velocity. On to B1, for which, in “purified protein [1]”, the Michaelis constant (Km) is 1020 µM.

B2: cotA from B. subtilis (Bacillus subtilis subsp. subtilis str. 168) (protein)
chain: MTLEKFVDALPIPDTLKPVQQSKEKTYYEVTMEECTHQLHRDLPPTRLWGYNGLFPGPTIEVKRNENVYVKWMNNLPSTHFLPIDHTIHHSDSQHEEPEVKTVVHLHGGVTPDDSDGYPEAWFSKDFEQTGPYFKREVYHYPNQQRGAILWYHDHAMALTRLNVYAGLVGAYIIHDPKEKRLKLPSDEYDVPLLITDRTINEDGSLFYPSAPENPSPSLPNPSIVPAFCGETILVNGKVWPYLEVEPRKYRFRVINASNTRTYNLSLDNGGDFIQIGSDGGLLPRSVKLNSFSLAPAERYDIIIDFTAYEGESIILANSAGCGGDVNPETDANIMQFRVTKPLAQKDESRKPKYLASYPSVQHERIQNIRTLKLAGTQDEYGRPVLLLNNKRWHDPVTETPKVGTTEIWSIINPTRGTHPIHLHLVSFRVLDRRPFDIARYQESGELSYTGPAVPPPPSEKGWKDTIQAHAGEVLRIAATFGPYSGRYVWHCHILEHEDYDMMRPMDITDPHK
notes: full length, 1542-bp PCR product from genomic DNA in pETM13 (p130), E. coli BL21(DE3); no fusions or tailing amino acids
Consider B2, for which the Km in the data set “purified protein [2]” turned out to be 340 µM.
